Assay results published in the supplement of paper PMC7877785.
± gives the uncertainty stated by the source.

Assay: self-splicing fitness, log relative to wild type (ln ratio); higher = more splicing; Tetrahymena group I intron in knt gene, E. coli kanamycin selection, DiMSum; sequences stand for … in CUCUCU…GGAGGGAAAAGUUAUCAGGCAUGCACCUGGUAGCUAGUCUUUAAACCAAUAGAUUGCAUCGGUUUAAAAGGCAAGACCGUCAAAUUGCGGGAAAGGGGUCAACAGCCGUUCAGUACCAAGUCUCAGGGGAAACUUUGAGAUGGCCUUGCAAAGGGUAUGGUAAUAAGCUGACGGACAUGGUCCUAACCACGCAGCCAAGUCCUAAGUCAACAGAUCUUCUGUUGAUAUGGAUGCAGUUCACAGACUAAAUGUCGGUCGGGGAAGAUGUAUUCUUCUCAUAAGAUAUAGUCGGACCUCUCCUUAAUGGGAGCUAGCGGAUGAAGUGAUGCAACACUGGAGCCGCUGGGAACUAAUUUGUAUGCGAAAGUAUAUUGAUUAGUUUUGGAGUACUCGUGGUCG
Summary of the method: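 The eight P1ex-region nucleotides of an intron in the knt kanamycin-resistance gene on pET-22b(+) were all randomised and the library put into E. coli BL21(DE3). Six replicate transformations were grown overnight at 37°C or 30°C on LB agar with or without 25 μg/mL kanamycin, together with 100 μg/mL carbenicillin, 50 μM IPTG and 0.2% rhamnose. Colonies were pooled and amplicon-sequenced on an Illumina HiSeq 2500. Fitness from DiMSum is the error-weighted combination of wild-type-normalised replicate fold changes, kanamycin over none.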

Sequence	self-splicing fitness (ln) (30 °C)	self-splicing fitness (ln) (37 °C)
GUUUAGCAAUAUUACGGAUA	-2.77 ± 0.27	-1.37 ± 0.19
UGAUAGCAAUAUUACGCAAG		-2.3 ± 0.26
AAAUAGCAAUAUUACGUGAU	-2.26 ± 0.099	-1.89 ± 0.11
UCCAAGCAAUAUUACGAGUU	-3.75 ± 0.28	-1.33 ± 0.2
GCUUAGCAAUAUUACGUAUU	-0.48 ± 0.12	0.669 ± 0.15
CACAAGCAAUAUUACGCCAC		-1.43 ± 0.43
AUUGAGCAAUAUUACGUGAC		-1.61 ± 0.45
UUCUAGCAAUAUUACGGCCG	-1.96 ± 0.14	-1.56 ± 0.16
GUCCAGCAAUAUUACGGGAA	-0.0663 ± 0.071	-0.474 ± 0.077
UUACAGCAAUAUUACGAGUC	-4.54 ± 0.3	-2.84 ± 0.26
UGUCAGCAAUAUUACGUCCG	-0.177 ± 0.17	0.083 ± 0.2
AUCGAGCAAUAUUACGGGCC	-1.92 ± 0.27	-2.19 ± 0.37
AAGUAGCAAUAUUACGAACA	-1.1 ± 0.13	-0.811 ± 0.18
GUAAAGCAAUAUUACGAAAC	-1.83 ± 0.13	-0.6 ± 0.13
CCUUAGCAAUAUUACGUACA	-3.88 ± 0.42	-2.22 ± 0.3
AAUGAGCAAUAUUACGCCCG	-2.18 ± 0.43	-1.76 ± 0.42
GAGAAGCAAUAUUACGAACA	-1.05 ± 0.17	-1.57 ± 0.2
UAAAAGCAAUAUUACGCAGC		-2.47 ± 0.39
UGAUAGCAAUAUUACGCACG	-1.41 ± 0.3	-0.216 ± 0.19
CUGUAGCAAUAUUACGAAGC	-4.57 ± 0.42	-2.67 ± 0.38
AACGAGCAAUAUUACGGAUG	-3.34 ± 0.31	
CCUCAGCAAUAUUACGCUCG	-2.8 ± 0.16	-2.96 ± 0.24
CUCUAGCAAUAUUACGUCAU	-2.83 ± 0.4	-4.18 ± 0.39
CCAAAGCAAUAUUACGUAAG	-0.334 ± 0.049	0.53 ± 0.071
CACUAGCAAUAUUACGUCAC	-4.12 ± 0.29	-2.01 ± 0.21

Sequence	self-splicing fitness (ln) (30 °C)	self-splicing fitness (ln) (37 °C)
UCCCAGCAAUAUUACGAUCC	-1.93 ± 0.41	-1.58 ± 0.46
AUCAAGCAAUAUUACGUUGU	-3.46 ± 0.17	-1.92 ± 0.12
ACCCAGCAAUAUUACGAUGU	-0.18 ± 0.041	-0.0583 ± 0.052
UAAGAGCAAUAUUACGAGUU	-3.16 ± 0.14	-2.87 ± 0.23
AUAUAGCAAUAUUACGAUUU	-0.24 ± 0.095	0.694 ± 0.12
AUGUAGCAAUAUUACGAAAU	-1.92 ± 0.086	-0.989 ± 0.11
CCCUAGCAAUAUUACGCUUA	-3.78 ± 0.18	-2.86 ± 0.12
CGGCAGCAAUAUUACGCUUU	-2.9 ± 0.2	-1.62 ± 0.13
GCCUAGCAAUAUUACGUCAG	-2.36 ± 0.26	-0.81 ± 0.34
GUUAAGCAAUAUUACGGCGG	-2.8 ± 0.21	-2.29 ± 0.33
GGAAAGCAAUAUUACGCCUG	-1.73 ± 0.34	
CCUCAGCAAUAUUACGCCUC	-3.76 ± 0.35	-1.75 ± 0.31
GCCCAGCAAUAUUACGAUGG	-3.53 ± 0.14	-2.98 ± 0.18
UACCAGCAAUAUUACGGUGC	-3.21 ± 0.12	-2.64 ± 0.2
CGAGAGCAAUAUUACGGAGA	-2.61 ± 0.26	
GUAUAGCAAUAUUACGCCAU	-2.96 ± 0.32	-1.6 ± 0.22
CAUAAGCAAUAUUACGUCCU	-3.78 ± 0.27	-3.15 ± 0.19
UCCCAGCAAUAUUACGUUCG	-3.65 ± 0.2	-2.96 ± 0.27
CUCCAGCAAUAUUACGCAUU	-3.38 ± 0.13	-3.51 ± 0.23
CUUUAGCAAUAUUACGGCAA	-2.06 ± 0.24	-1.98 ± 0.28
GACUAGCAAUAUUACGACCG	-0.436 ± 0.3	-0.537 ± 0.34
UAAUAGCAAUAUUACGUCGG	-2.21 ± 0.11	-1.49 ± 0.14
UGCUAGCAAUAUUACGCAGU	-3.21 ± 0.31	-2.51 ± 0.43
AUUUAGCAAUAUUACGGUUG	-2.68 ± 0.39	
AGUAAGCAAUAUUACGCAUG	-3.12 ± 0.17	-1.95 ± 0.23
